T1: TSG-101:6xHIS (recombinant C. elegans TSG-101) (C. elegans, UniProt O76258 1-425)
T1 construct: open reading frame amplified from N2 cDNA; source: E. coli BL21 (DE3), co-expressed from a polycistronic vector, purified (Ni-NTA, Superose 6); not shown: 6xHis, C-terminal, kept
T1 sequence (looked up): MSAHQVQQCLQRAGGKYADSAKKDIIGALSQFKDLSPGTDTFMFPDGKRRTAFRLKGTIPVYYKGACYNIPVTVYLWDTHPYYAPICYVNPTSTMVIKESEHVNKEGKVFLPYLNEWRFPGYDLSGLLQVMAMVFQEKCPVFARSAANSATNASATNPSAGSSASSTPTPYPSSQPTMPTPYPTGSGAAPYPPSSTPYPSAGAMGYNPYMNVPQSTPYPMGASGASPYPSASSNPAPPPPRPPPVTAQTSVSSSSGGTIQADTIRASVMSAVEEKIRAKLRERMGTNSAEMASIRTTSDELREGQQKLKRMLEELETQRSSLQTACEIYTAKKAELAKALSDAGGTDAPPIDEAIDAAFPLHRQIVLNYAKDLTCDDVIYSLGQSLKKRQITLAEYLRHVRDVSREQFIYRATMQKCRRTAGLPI

B1: VPS-28 (recombinant C. elegans) (natural protein, UniProt Q9NA26 1-210, looked up)
chain: MSSQNANLMREVRLFENHSEREQMENLSELFAVLNALEHLEKMFSRDHVSADEYKSECFKLIDQYKVTMRLVHGATSIEDFAKKYRLHCPAAIERIREGRPITVKDDQGNVLKHIASIVEQFITFLDALRLNTRAVDDLYPGLDDLYNAINTTSRVPIDAIVTTKVKKWHDRLSSMAASDEISDEDARQMIFDVESAYQAFNKALNELKH
notes: VPS-28, C. elegans; open reading frame amplified from N2 cDNA
B2: MVB-12 (recombinant C. elegans) (natural protein, UniProt Q17687 1-277, looked up)
chain: MTELEFSADNAAPVIPITAICIVADKNKAPRGFLPIIKCQDDQTEADLWRDGFFTINRQVRYICTSTEIPDSNIKTPVQVITNLIIVRESDPIPHGYVAIDYTADSREKSLRKKYVCIRTEPRDRVVDAIGEIIILGKTKKVPRDYTSAGDIDSLLICYKVISIPQTYGIQTSNSTSNIESQAAGGLYPGLPNLSNSTPANLDVTGSSSNSAFTMKNAGAPRVKAIDGIDFKVNPMFVNSSGSNNSSQLPDLSQFNDLDRLDDKYNYSYATEHAVLS
notes: MVB-12 (C06A6.3), C. elegans; open reading frame amplified from N2 cDNA; 277 amino acids as printed
B3: VPS-37 (recombinant C. elegans) (natural protein, UniProt O44158 1-234, looked up)
chain: MFSQNPYESHVDVAVSAASANLRNMTNEQLISLLDDDALLESIIVNLPQVRSMPTDKESALAANKSLAEWNLAQKPRIDAAKTQTVDLYDQVKKLQGEVAVLKSQLDSVSSSKSLDTTSSLMQVAAQEADDDAEALFTQFENGEISVEIFLKQFKDKKTIAHLRKIKSDRLAALLREQTYSSYAQPTVPPPMPHAQPGYPTGNHMPGIGNIQFGSGYSGYPNISQPSAGRHPFF
notes: VPS-37 (CD4.4), C. elegans; open reading frame amplified from N2 cDNA

Legend:
[1] = biological target: TSG-101 (C. elegans, endogenous) (C. elegans (endogenous in embryos)); experiment: SEC + other: sucrose density gradient sedimentation; C. elegans embryo extracts desalted into 50 mM Na phosphate pH 7.0, 250 mM NaCl, 1 mM EDTA, 1 mM beta-mercaptoethanol; Superose 6 and 5-20% sucrose gradient; fractions blotted for TSG-101 and MVB-12
[2] = biological target: T1, TSG-101:6xHIS (recombinant C. elegans …); experiment: SEC + other: sucrose density gradient sedimentation; TSG-101:6xHIS, VPS-28 and VPS-37 co-expressed in E. coli, purified on nickel resin; Superose 6 in 50 mM Na phosphate pH 7.0, 250 mM NaCl, 1 mM EDTA, 1 mM beta-mercaptoethanol; 5-20% sucrose gradient; Stokes radius and S-value combined to a native molecular weight; conditions: both partners purified
[3] = biological target: T1, TSG-101:6xHIS (recombinant C. elegans …); experiment: SEC + other: sucrose density gradient sedimentation; TSG-101:6xHIS, VPS-28, VPS-37 and MVB-12 co-expressed in E. coli, purified on nickel resin; Superose 6 in 50 mM Na phosphate pH 7.0, 250 mM NaCl, 1 mM EDTA, 1 mM beta-mercaptoethanol; 5-20% sucrose gradient; Stokes radius and S-value combined to a native molecular weight; conditions: both partners purified

Molecule | stoichiometry N [2] | further results
MVB-12 (C. elegans, endogenous) (from UniProt Q17687 1-277) (natural protein) | – | stoichiometry N [1]: 1
B1 | 1 | –
B2 | – | stoichiometry N [3]: 1
B3 | 1 | –
